Reference: patent US11834472B2, “Anti-IL-22 antibodies, antibody fragments, their immunoconjugates and uses thereof” (BioAtla, Inc., priority 2018, dated 2023)

Legend:
human IL-22 = target: T1, human IL-22 (Homo sapiens, UniProt Q9GZX6); test: SPR capture assay, affinity to human IL-22; type: binding; conditions: human IL-22, SPR
T1 sequence (Q9GZX6 34-179): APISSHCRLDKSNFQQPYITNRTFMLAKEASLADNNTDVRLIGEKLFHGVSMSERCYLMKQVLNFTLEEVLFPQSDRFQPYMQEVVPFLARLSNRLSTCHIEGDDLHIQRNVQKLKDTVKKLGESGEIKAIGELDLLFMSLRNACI
Protocol: (§1) The affinity of the 10 antibodies of Table 1 was measured by Surface Plasma Resonance (SPR) using a capture assay in PBS buffer to generate binding curves at four different concentrations of each antibody (0.05, 0.1, 0.5, and 1.0 μg/ml). The Ka, Kd and KD values for the mutant antibodies were calculated from the curves for each of the antibodies.
(§2) The affinity of the 10 antibodies of Table 1 was measured by Surface Plasma Resonance (SPR) using a capture assay on a SPR-2 instrument (SierraSensiors, Hamburg, Germany). The antigens hIL-22 and mIL-22 were immobilized on chips. The running buffer for the assay contained 10 mM HEPES with a pH of 7.4, 500 mM NaCl, and 0.05% TWEEN® 20. […] The off-rate was measured for 6 minutes. Binding constants were calculated using the curve fitting software Analyzer2 (Sierra Sensors). Sensorgrams were analyzed with the instrument specific software and with BIAevaluation 4.1 software. The binding data were analyzed using the Langmuir 1:1 model (human IL-22) or a model for a heterogeneous ligand ([…]).
(§3) The antibodies were tested at four different concentrations of each antibody: 0.33 nM, 0.67 nM, 3.3 nM, 6.7 nM for hIL-22; 1, 2, […] for mIL-22. Antibody CPE-LC-E049K was used as a control.

[1] = Pharmacokinetics in NOD SCID mice, plasma concentration by solid phase ELISA; type: in vivo, mouse; conditions: after a 10 mg/kg IV injection
Protocol: The pharmacokinetics of the mutant antibodies of Table 1 were analyzed in mice. The antibodies were injected into mice by IV injection at two doses 0.3 mg/kg and 10 mg/kg. The concentrations of the injected antibodies in the blood plasma were measured by solid phase ELISA.
Two anti-IL-22 antibodies CPS02 and CPS09 were tested in NOD SCID mice. The antibodies were injected via IV at two dosages: 0.3 mg/kg and 10 mg/kg. Three mice were used for each dose group. Blood samples were retrieved from the mice at 10 min, 1 h, 3 h 7 h, 24 h, 48 h, 96 h, 168 h, 240 h and 336 h after the IV injection. The concentrations of the injected antibodies in the blood samples were measured by solid phase ELISA.

Thermostability = type: physicochemical
mouse IL-22 = target: T2, mouse IL-22 (Mus musculus, UniProt Q9JJY9); test: SPR capture assay, affinity to mouse IL-22; type: binding; conditions: mouse IL-22, SPR
T2 sequence (Q9JJY9 34-179): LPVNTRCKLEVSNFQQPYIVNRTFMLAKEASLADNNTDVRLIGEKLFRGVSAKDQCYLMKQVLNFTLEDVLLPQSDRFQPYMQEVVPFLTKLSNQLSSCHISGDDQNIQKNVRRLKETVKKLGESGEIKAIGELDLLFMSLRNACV
Protocol: as §1, §2, §3

[2] = tested on: imiquimod (IMQ) induced psoriasis; type: in vivo
Source text: Two anti-IL-22 antibodies of the present invention, CPS02 and CPS09, were used for the treatment of imiquimod (IMQ) induced psoriasis in mice (FIG. 12). The mice were male BALB/c mice, which were an albino, laboratory-bred strain of the house mouse. A total of 70 mice, at a body weight of 18-20 g, were acclimated for 7 days before induction of psoriasis.
The 70 mice were randomized into 7 groups (10 mice in each group). One group (group 1) was used as a negative control to which no imiquimod was administered to the mice, which was instead replaced with Vaseline. […] The other 6 groups (groups 2-7) were dosed topically with imiquimod at a dosage of 82.5 mg/mouse (5% cream) once daily (qd) for 8 consecutive days from day 0 to day 7 (20 mg for the left ear, 62.5 mg for the shaved back) to induce psoriasis. The back skin was shaved to expose an area of 2×3 cm^2. For the Vaseline control group, the Vaseline was also applied at 82.5 mg/mouse once daily (qd) for 8 consecutive days (20 mg for left ear, 62.5 mg for the shaved back) from day 0 to day 7.
Group 2 was a group of psoriasis-induced mice that were untreated to serve as a control group. The treatment period completely overlapped with the imiquimod application period (day 0 to day 7). For group 2, the mice received both imiquimod and […] on each day of the 8-day period (day 0 to day 7). For the groups that received intravenous (I.V.) injection, the imiquimod was applied within one hour after the I.V. injection on days 0 and 3.
Group 3 was treated with the steroid dexamethasone, which is a current therapeutic treatment used for psoriasis. The dexamethasone was topically applied twice a day (BID) for 8 days. Group 4 was treated with phosphate-buffered saline (PBS), which served as a negative control. Group 5 was treated with an isotype control antibody that also served as a negative control. Groups 6-7 were treated with the anti-IL22 antibodies CPS02 (A) and CPS09 (B), respectively. The treatments for Groups 4-7 were administered by a single intravenous (I.V.) injection on each of days 0 and 3. 3 mice in group 6 died on day 0 and 2 died on day 1. On day 3, the I.V. injection dosage for this group was decreased to 10 mg/kg.
During the 8 day treatment period, the ear thickness was measured on days 0, 3, 5 and 7. The body weight and various skin scores were recorded daily. Pictures of the psoriasis sites were taken on days 0, 3, 5 and 7. On days 1 and 4, about 60 μl blood was collected via retro-orbital bleeding over 24 hours and placed in BD Microtainer® tubes coated with dipotassium ethylenediaminetetraacetic acid (K2EDTA). Plasma was then collected (to get at least 20 μl plasma) and stored at −80° C.
Skin scores for erythema, scales and thickness were measured daily according to an established grading system. The erythema, scales and thickness were scored independently on a scale of from 0 to 4: 0 means none, 1 means slight, 2 means moderate, 3 means marked, and 4 means very marked. The cumulative (total) skin score was also calculated.
The effects of the treatments were analyzed statistically using two-way analysis of variance (ANOVA, Bonferroni post-tests) or one-way ANOVA analysis. For comparisons between the treatment groups and the control group, the p value is denoted in FIGS. 13-18 as (*) if less than 0.05, (**) if less than 0.01, or (***) if less than 0.001.

[3] = Aggregate formation at 10 mg/mL in PBS; type: physicochemical
[4] = group 6 (10 mice), 20 mg/kg I.V. on day 0

B1: CPS02: mutant anti-IL-22 antibody binding human and mouse IL-22; light chain LC-06, heavy chain HC-08 (antibody, V domains shown)
VH: QVQLVQSGAEVKKPGASVKVSCKASGYIFRSYWIHWIRQPPGKGLEWIGRIYPGTGRTYYNEKFKGRVTISADKSISTAYLQWSSLKASDTAMYYCARSYDSSVAYWGQGTLVTVSS
VL: AIQLTQSPSSLSASVGDRVTITCSASSSVSYMHWYLQKPGQSPQLLIYKTRKLASGVPSRFSGSGSGTDFTFTISSLEAEDAATYYCQQWSSNPYITFGQGTKVEIKR
With B1 the ka (human IL-22) was 1.87e+06 M·s, the kd (human IL-22) was 4.67e-05 s⁻¹ and the half-life in mice [1] was “about 18 hours”. For the same molecule, the “Thermostability (% remaining activity 60 min); of duplicate samples” value (Thermostability) was 104%, the ka (mouse IL-22) was 166000 M·s and the kd (mouse IL-22) was 0.000545 s⁻¹. The “reduction in body weight of the treated mice” value ([2]; IMQ psoriasis mice, days 0-7, in comparison to dexamethasone / PBS (FIG. 13)) was “less reduction in body weight”, the “mice died on day 0” value [2, 4] was 3 mice and the “mice died on day 1” value [2, 4] was 2 mice. For the same molecule, the ear skin thickness ([2]; vs negative controls (isotype matched antibody, PBS, vehicle) (FIG. 14)) was “less”, the skin erythema score ([2]; vs negative controls (isotype matched antibody, PBS, vehicle) (FIG. 15)) was “lower” and the skin scale score ([2]; vs negative controls (isotype matched antibody, PBS, vehicle) (FIG. 16)) was “lower”. For the same molecule, the skin thickness ([2]; vs negative controls (isotype matched antibody, PBS, vehicle) (FIG. 17)) was “lower”, the total skin score ([2]; vs negative controls (isotype matched antibody, PBS, vehicle) (FIG. 18)) was “lower” and the “Aggregate formation at 10 mg/mL in PBS” value [3] was “no”.
